Patent publication US20240352100A1 (AJOU UNIVERSITY INDUSTRY ACADEMIC COOPERATION FOUNDATION, published 2024)
Residue numbers refer to the chain shown, from its start. Blank lines part the entries; values can stand above or below the molecule they belong to.

Assays:
[1] = target: β-catenin (endogenous, in colon cancer cell lines) (human) (UniProt P35222); test: cell-based or functional assay
[2] = target: T1, His8-Avi-tag-β-catenin (recombinant, biotinylated, from E. coli) (human, UniProt P35222 1-781, limits assumed, biotinylated (Avi-tag, co-expressed with pBirAcm in the presence of D-Biotin)); test: BLI (Octet QKe): antibody captured on AHC sensor, β-catenin at 200, 100, 50, 25, 12.5 nM, 1:1 binding model
T1 construct: also called purified β-catenin; recombinant antigen protein β-catenin; not shown: His8-Avi tag
T1 sequence (looked up): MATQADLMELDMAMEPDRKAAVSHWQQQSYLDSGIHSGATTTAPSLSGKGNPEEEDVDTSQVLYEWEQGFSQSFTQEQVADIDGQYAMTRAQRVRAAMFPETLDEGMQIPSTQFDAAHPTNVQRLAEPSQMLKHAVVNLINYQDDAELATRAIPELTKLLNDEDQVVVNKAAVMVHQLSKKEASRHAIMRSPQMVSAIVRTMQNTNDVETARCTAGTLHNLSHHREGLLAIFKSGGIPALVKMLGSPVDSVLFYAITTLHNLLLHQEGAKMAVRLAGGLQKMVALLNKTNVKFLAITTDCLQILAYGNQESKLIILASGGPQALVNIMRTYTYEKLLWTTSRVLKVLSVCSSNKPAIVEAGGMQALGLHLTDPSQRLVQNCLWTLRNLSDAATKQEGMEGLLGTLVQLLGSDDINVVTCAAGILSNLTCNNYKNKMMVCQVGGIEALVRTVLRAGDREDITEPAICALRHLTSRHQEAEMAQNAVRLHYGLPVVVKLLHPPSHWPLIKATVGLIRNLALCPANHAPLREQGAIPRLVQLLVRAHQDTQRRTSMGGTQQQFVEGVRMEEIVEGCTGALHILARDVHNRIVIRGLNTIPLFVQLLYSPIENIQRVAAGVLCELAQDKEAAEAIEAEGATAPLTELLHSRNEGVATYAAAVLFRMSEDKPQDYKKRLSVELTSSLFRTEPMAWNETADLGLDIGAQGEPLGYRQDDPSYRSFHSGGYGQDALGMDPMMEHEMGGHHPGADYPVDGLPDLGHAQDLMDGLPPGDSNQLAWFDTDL

[3] = target: T1, His8-Avi-tag-β-catenin (recombinant, …); test: BLI (Octet QKe), antibody captured on AHC sensor, β-catenin 200-12.5 nM, 1:1 model

- β-catenin degradation activity (Western blot, HCT116, 2 µM, 12 h) [1]: 25%
Molecule: inBC2-(A6)-VHL152-213 (antibody)

- β-catenin degradation activity (Western blot, HCT116, 2 µM, 12 h) [1]: 5%
Molecule: inBC2-(G5)-VHL152-213 (antibody)

- β-catenin degradation activity (Western blot, HCT116, 2 µM, 12 h) [1]: 8%
Molecule: inBC2-(G10)-VHL152-213 (antibody)

- β-catenin degradation ability (Western blot, three colon cancer cell lines) [1]: 40%
- β-catenin degradation ability compared to inBC2-VHL152-213 (Western blot) (% higher than inBC2-VHL152-213) [1]: 20
Molecule: inBC2-SOCS2153-198 (antibody)

- decrease in the amount of β-catenin (Western blot, HCT116, with or without MLN4924 or Bortezomib) [1]: 30%
- β-catenin degradation activity (Western blot, DLD-1, 2 µM, 12 h) [1]: 15%
- β-catenin degradation activity (Western blot, HCT116, 2 µM, 12 h) [1]: 36%
- β-catenin degradation activity (Western blot, SW480, DLD-1, HCT116) [1]: 20%
- β-catenin degradation activity over time (Western blot, DLD-1, 2 µM) [1]: 25%
Molecule: inBC2-VHL152-213 (antibody)

- koff [2]: 0.000233 s⁻¹
- kon [2]: 40500 M⁻¹ s⁻¹
- Kd [3]: 5.75 nM
B1: inBC0 (antibody, V domains shown)
VH: QVQLVESGGGVVQPGRSLRLSCAASGFTFSSYPMHWVRQAPGKGLEWVAVVSYDGSYKYYADSVKGRLTISRDNSKNTLYLQMNSLRAEDTAVYYCARATVRGVTKIRGVFDSWGRGALVTVSS
VL: DYQLTQSPSSLSASVGDRVTITCKSSQSLLNSRDGKNYLAWYQQKPGKAPKMLIYWASTRESGVPSRFSGSGSGTDFTLTISSLQPEDFATYFCQQYWYWMFTFGQGTKVEIKR
notes: Complete immunoglobulin made by putting the anti-β-catenin VH into inRas37; also called anti-β-catenin cytosol-penetrating interfering antibody inBC0

- koff [2]: 0.000219 s⁻¹
- kon [2]: 44600 M⁻¹ s⁻¹
- Kd [3]: 4.92 nM
B2: inBC2 (antibody, V domains shown)
VH: B1 VH with R116Q, A118T
VL: B1 VL
notes: Complete immunoglobulin; FR4 back-mutated form of inBC0; also called anti-β-catenin cytosol-penetrating interfering antibody inBC2; anti-β-catenin iMab
